Experiment [1] deals with T1, VEGF165 (293-VE) (UniProt P15692-4 27-191).
T1 construct: the UniProt canonical entry is a longer isoform; also called VEGF-A
In words: solution binding: VEGF165 incubated 45 min at 37 C with titrated VID, free VEGF measured by ELISA (Human VEGF DuoSet kit). How it is done:
(§1) After incubation, free VEGF was detected using the Human VEGF DuoSet ELISA Development Kit (R&D Systems Catalog No. DY293B) according to the manufacturer's instructions. The data was analyzed by sigmoidal curve fitting using Prism 4.
On the technique in general: An ELISA detects its analyte on a solid surface through an enzyme-linked reagent.

The target of experiment [2] is T1, VEGF165 (293-VE). The experiment in a line: solution binding: about 40 pM VEGF165 incubated with the protein, free VEGF read by DuoSet ELISA. On the procedure:
as §1

As usually defined, the EC50 is the concentration at which the effect is half-maximal. High values mean weaker potency, low ones greater potency.

T1 sequence (P15692 other isoform, or with tags, fused parts or gaps limits assumed): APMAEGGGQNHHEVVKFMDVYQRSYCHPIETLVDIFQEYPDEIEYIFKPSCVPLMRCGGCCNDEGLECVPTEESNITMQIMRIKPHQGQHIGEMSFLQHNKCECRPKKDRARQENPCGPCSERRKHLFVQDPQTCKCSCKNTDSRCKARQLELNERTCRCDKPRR

B1: VID (fragment of ACVP-1 wherein the VID has the Fc domain fused to its C-terminus) (Fc fusion)
chain: GRPFVEMYSEIPEIIHMTEGRELVIPCRVTSPNITVTLKKFPLDTLIPDGKRIIWDSRKGFIISNATYKEIGLLTCEATVNGHLYKTNYLTHRQTNTIIDVVLSPSHGIELSVGEKLVLNCTARTELNVGIDFNWEYPSSKHQHKKLVNRDLKTQSGSEMKKFLSTLTIDGVTRSDQGLYTCAASSGLMTKKNSTFVRVHEK
notes: not shown: human IgG1 Fc region as in ACVP-1
B1: the results for the EC50 in experiment [1] and in experiment [2] were 0.0731 nM and around 0.7 nM, respectively.
